US20240247080A1, “GLP1/GIP/NPY2 RECEPTOR TRIPLE AGONISTS” (Boehringer Ingelheim International GmbH, priority 2022, published 2024)
Starred links: 1 amine or outer side, 2 acyl side, 3 side chain; linkers in the order of their positions; H or OH if unused. Non-standard residues stand in square brackets, D forms with d. Groups on a side chain read outwards from the residue. No end group written: not given here. *: point of attachment. C18 diacid = O=C(O)CCCCCCCCCCCCCCCCC(=O)*; γGlu = O=C(O)[C@H](CCC(=O)[*:2])N[*:1]; AEEA = NCCOCCOCC(=O)O; Aib = CC(C)(N)C(=O)O

T1: NPY2 receptor (human (printed as hNPY2R), UniProt P49146 1-381)
T1 sequence (looked up): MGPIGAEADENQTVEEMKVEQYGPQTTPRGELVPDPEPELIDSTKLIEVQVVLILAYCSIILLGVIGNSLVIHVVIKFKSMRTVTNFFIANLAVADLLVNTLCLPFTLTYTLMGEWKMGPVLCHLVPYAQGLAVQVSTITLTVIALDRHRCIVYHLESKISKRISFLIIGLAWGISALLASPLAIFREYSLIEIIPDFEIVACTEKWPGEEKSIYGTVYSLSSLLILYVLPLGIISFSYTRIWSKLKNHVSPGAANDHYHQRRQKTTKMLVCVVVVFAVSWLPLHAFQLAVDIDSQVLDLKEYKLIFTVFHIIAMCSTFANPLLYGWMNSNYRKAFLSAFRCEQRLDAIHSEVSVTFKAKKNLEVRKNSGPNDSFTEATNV

T2: GIP receptor (human (printed as hGIPR), UniProt P48546 22-466)
T2 sequence (looked up): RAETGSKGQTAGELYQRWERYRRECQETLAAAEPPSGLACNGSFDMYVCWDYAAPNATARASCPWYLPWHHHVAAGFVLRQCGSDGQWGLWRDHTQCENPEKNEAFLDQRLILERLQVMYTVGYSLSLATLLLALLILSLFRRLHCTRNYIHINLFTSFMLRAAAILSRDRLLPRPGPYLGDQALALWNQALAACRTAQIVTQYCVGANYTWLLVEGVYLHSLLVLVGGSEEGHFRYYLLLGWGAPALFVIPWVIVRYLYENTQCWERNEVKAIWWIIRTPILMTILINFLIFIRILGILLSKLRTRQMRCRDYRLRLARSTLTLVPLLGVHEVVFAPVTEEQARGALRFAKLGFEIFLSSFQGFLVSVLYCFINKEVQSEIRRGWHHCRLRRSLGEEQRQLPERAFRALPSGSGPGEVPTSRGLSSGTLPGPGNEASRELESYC

T3: human GIP receptor (human, UniProt P48546 22-466)
T3 sequence (looked up): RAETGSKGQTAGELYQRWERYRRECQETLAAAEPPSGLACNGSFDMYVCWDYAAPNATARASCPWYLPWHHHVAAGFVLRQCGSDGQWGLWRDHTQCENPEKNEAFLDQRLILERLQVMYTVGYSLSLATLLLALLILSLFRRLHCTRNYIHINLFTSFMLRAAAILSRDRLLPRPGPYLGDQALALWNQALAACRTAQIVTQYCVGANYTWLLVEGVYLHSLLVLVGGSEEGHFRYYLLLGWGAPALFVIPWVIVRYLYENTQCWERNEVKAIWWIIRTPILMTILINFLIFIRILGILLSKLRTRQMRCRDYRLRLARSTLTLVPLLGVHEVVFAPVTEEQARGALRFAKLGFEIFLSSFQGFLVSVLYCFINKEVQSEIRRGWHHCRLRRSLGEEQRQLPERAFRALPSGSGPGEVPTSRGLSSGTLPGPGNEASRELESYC

T4: human neuropeptide Y2 (NPY2) receptor (human, UniProt P49146 1-381)
T4 sequence (looked up): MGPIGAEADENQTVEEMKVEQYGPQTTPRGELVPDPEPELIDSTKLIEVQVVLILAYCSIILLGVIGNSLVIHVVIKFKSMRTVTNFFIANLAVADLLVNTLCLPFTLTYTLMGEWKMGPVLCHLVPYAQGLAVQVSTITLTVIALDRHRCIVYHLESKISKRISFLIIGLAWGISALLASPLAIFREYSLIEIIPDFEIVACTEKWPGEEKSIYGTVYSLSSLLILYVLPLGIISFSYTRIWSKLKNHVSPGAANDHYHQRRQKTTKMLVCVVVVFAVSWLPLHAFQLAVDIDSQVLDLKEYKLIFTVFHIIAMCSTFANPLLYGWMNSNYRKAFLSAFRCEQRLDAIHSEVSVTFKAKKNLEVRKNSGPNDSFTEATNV


Experiments:
Assay in all cases: cell-based or functional assay
GLP-1 receptor = GLP-1 receptor (human (printed as hGLP1R), UniProt P43220 24-463)
NPY2 receptor = target: T1, NPY2 receptor
GIP receptor = target: T2, GIP receptor
human GLP-1 receptor = human GLP-1 receptor (human, UniProt P43220 24-463)
human GIP receptor = target: T3, human GIP receptor
[1] = target: T4, human neuropeptide Y2 (NPY2) receptor

Binder	EC50 hGLP1R 0.5% hP (CreLuc) (GLP-1 receptor)	EC50 hGLP1R 100% hP (CreLuc) (GLP-1 receptor)	EC50 hNPY2R 0.5% hP (CreLuc) (NPY2 receptor)	EC50 hNPY2R 100% hP (CreLuc) (NPY2 receptor)	EC50 hGIPR 0.5% hP (CreLuc) (GIP receptor)	EC50 hGIPR 100% hP (CreLuc) (GIP receptor)	EC50, CreLuc assay, 0.5% hP (human GLP-1 receptor)	EC50, CreLuc assay, 100% hP (human GLP-1 receptor)	EC50, CreLuc assay, 0.5% hP (human GIP receptor)	EC50, CreLuc assay, 100% hP (human GIP receptor)	EC50, CreLuc assay, 0.5% hP [1]	EC50, CreLuc assay, 100% hP [1]
YXEGTFTSDYSIXLEKQAQXAFVQWLIKGGPSYYVSLRHYYNWLTRQRY (Aib at 2, 13, 20; K28 side chain: C20DA-gGlu-gGlu-gGlu-gGlu-gGlu-gGlu-eLys; C-terminal NH2) [Compound 19]	–	–	–	–	–	–	0.5 nM	10.2 nM	0.61 nM	6.5 nM	9.41 nM	19.3 nM
Y[Aib]EGTFTSDYSI[Aib]LEKQAQ[Aib]AFVQWLIKGGPSEGASLRHYYNWLTRQRY-NH2 (not fully specified (residue 28); also: TFA salt) [Compound 245]	0.09 nM	3.78 nM	24.5 nM	66.9 nM	0.37 nM	1.74 nM	–	–	–	–	–	–
Y[Aib]EGTFTSDYSI[Aib]LEKQAQ[Aib]AFVQWLIKGGPSEGASLRHYYNWLTRQRY-NH2 (not fully specified (residue 28); also: TFA salt) [Compound 243]	0.12 nM	5.96 nM	9.16 nM	50.6 nM	0.54 nM	2.97 nM	–	–	–	–	–	–
YXEGTFTSDYSIXLEKQAQXAFVEWLIKGGPSSGASLRHYXNRXTRQRY (Aib at 2, 13, 20, 41, 44; K28 side chain: C20DA-gGlu-gGlu-gGlu-gGlu-gGlu-gGlu-eLys; C-terminal NH2) [Compound 18]	–	–	–	–	–	–	0.12 nM	1.94 nM	0.36 nM	1.98 nM	85.7 nM	224 nM

More lines, now with the values ahead:

EC50 hGLP1R 0.5% hP (CreLuc) (GLP-1 receptor)	EC50 hGLP1R 100% hP (CreLuc) (GLP-1 receptor)	EC50 hNPY2R 0.5% hP (CreLuc) (NPY2 receptor)	EC50 hNPY2R 100% hP (CreLuc) (NPY2 receptor)	EC50 hGIPR 0.5% hP (CreLuc) (GIP receptor)	EC50 hGIPR 100% hP (CreLuc) (GIP receptor)	EC50, CreLuc assay, 0.5% hP (human GLP-1 receptor)	EC50, CreLuc assay, 100% hP (human GLP-1 receptor)	EC50, CreLuc assay, 0.5% hP (human GIP receptor)	EC50, CreLuc assay, 100% hP (human GIP receptor)	EC50, CreLuc assay, 0.5% hP [1]	EC50, CreLuc assay, 100% hP [1]	Binder
0.08 nM	0.74 nM	13.4 nM	39.3 nM	0.24 nM	0.64 nM	–	–	–	–	–	–	YXEGTFTSDYSIXLEKQAQXAFVEWLIKGGPSSGASLRHYYNWLTRQRY (Aib at 2, 13, 20; K28 side chain carries C18DA-gGlu-gGlu-gGlu-gGlu-gGlu; C-terminal amide) [Compound 253]
0.08 nM	2.03 nM	12.2 nM	37.4 nM	0.2 nM	1.25 nM	–	–	–	–	–	–	YXEGTFTSDYSIXLEKQAQXAFVQWLIKGGPSEGASLRHYYNWLTRQRY (Aib at 2, 13, 20; K28 side chain carries C18DA-gGlu-gGlu-gGlu-gGlu-gGlu; C-terminal amide) [Compound 250]
0.11 nM	2.2 nM	11.9 nM	64.7 nM	0.26 nM	1.57 nM	–	–	–	–	–	–	Y[Aib]EGTFTSDYSI[Aib]LEKQAQ[Aib]AFIEWLIK([γGlu-γGlu-γGlu-γGlu-C18 diacid])GGPSEGASLRHYYNWLTRQRY-NH2 (also: TFA salt) [Compound 247]
0.49 nM	7.16 nM	20.6 nM	48.7 nM	0.16 nM	0.98 nM	–	–	–	–	–	–	Y[Aib]EGTFTSDYSI[Aib]LEKQAE[Aib]AFVEWLIK([AEEA-AEEA-γGlu-γGlu-γGlu-γGlu-C18 diacid])GGPSEGASLRHYYNWLTRQRY-NH2 (also: TFA salt) [Compound 251]
0.25 nM	8 nM	18.7 nM	48.4 nM	0.12 nM	0.79 nM	–	–	–	–	–	–	Y[Aib]EGTFTSDYSI[Aib]LEKQAQ[Aib]AFVEWLIK([AEEA-AEEA-γGlu-γGlu-γGlu-C18 diacid])GGPEEGASLRHYYNWLTRQRY-NH2 (also: TFA salt) [Compound 248]
0.18 nM	4.59 nM	10.9 nM	27 nM	0.23 nM	1.56 nM	–	–	–	–	–	–	Y[Aib]EGTFTSDYSI[Aib]LEKQAQ[Aib]AFVEWLIK([AEEA-AEEA-γGlu-γGlu-γGlu-γGlu-C18 diacid])GGPSEPASLRHYYNWLTRQRY-NH2 (also: TFA salt) [Compound 256]
